Results as given in patent US5968509.

Target: human CD3 antigen (human) (UniProt P07766)
Experiment: competitive flow cytometry on HPBALL cells; competitor: biotinylated monovalent humanised CD3 Mab

UniProt P07766, sequence (P07766 23-207): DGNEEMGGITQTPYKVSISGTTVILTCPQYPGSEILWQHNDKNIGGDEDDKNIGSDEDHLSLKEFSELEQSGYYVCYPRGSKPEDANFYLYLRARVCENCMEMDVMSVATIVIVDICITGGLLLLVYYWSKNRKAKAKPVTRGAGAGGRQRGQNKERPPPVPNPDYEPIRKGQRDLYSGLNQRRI

fold concentration for 50% competition, against rat YTH12.5 Mab: 1.3 fold
B1: humanised bivalent CD3 Mab (antibody, V domains shown)
VH: EVQLLESGGGLVQPGGSLRLSCAASGFTFSSFPMAWVRQAPGKGLEWVSTISTSGGRTYYRDSVKGRFTISRDNSKNTLYLQMNSLRAEDTAVYYCAKFRQYSGGFDYWGQGTLVTVSS
VL: DFMLTQPHSVSESPGKTVIISCTLSSGNIENNYVHWYQQRPGRAPTTVIFDDDKRPDGVPDRFSGSIDRSSNSASLTISGLQTEDEADYYCHSYVSSFNVFGGGTKLTVL
